Experimental data from the supplement of paper PMC10724198.
± gives the standard deviation of the averaged measurements.

Experiments:
Saccharomyces cerevisiae [1] = experiment: protein stability index of tFT-peptide fusion (C-terminal peptide) (PSI (0-1 scale)); higher = more stable (slower turnover)
Procedure: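 MPS profiling in S. cerevisiae of the tFT-X12 degron library: putative degron peptides plus stable controls, 12 aa, fused to the C-terminus of a sfGFP-mCherry timer. Cells are FACS-sorted into 8 mCherry/sfGFP bins and deep-sequenced. PSI runs from 0 (unstable) to 1 (stable). Backgrounds are wild type, das1Δ and doa10Δ at 30 °C, and wild type, das1Δ, cdc34-1 and cdc53-1 at 37 °C; 2-3 technical replicates each.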

Saccharomyces cerevisiae [2] = experiment: as above; settings: genetic background: wild type; temperature: 30 C
[3] = genetic background: cdc34-1, temperature: 37 C
[4] = genetic background: cdc53-1, temperature: 37 C
[5] = genetic background: das1 deletion, temperature: 30 C
[6] = genetic background: das1 deletion, temperature: 37 C
[7] = genetic background: doa10 deletion, temperature: 30 C
[8] = genetic background: wild type, temperature: 30 C
[9] = genetic background: wild type, temperature: 37 C
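Note: PSI is a weighted mean of sequencing reads over stability bins, variants kept only with over 10 reads, mCherry proximal and sfGFP distal, peptide attached via GGGS linker.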

With CMAWLSVLKTLF the protein stability index (Saccharomyces cerevisiae [1]; [3]) was 0.709 ± 0.082, the protein stability index (Saccharomyces cerevisiae [1]; [4]) was 0.744 ± 0.023 and the protein stability index (Saccharomyces cerevisiae [1]; [5]) was 0.63 ± 0.017. The protein stability index (Saccharomyces cerevisiae [1]; [6]) was 0.756 ± 0.037, the protein stability index (Saccharomyces cerevisiae [1]; [7]) was 0.387 ± 0.037 and the protein stability index (Saccharomyces cerevisiae [1]; [8]) was 0.421 ± 0.012. It also gave a protein stability index (Saccharomyces cerevisiae [1]; [9]) of 0.615 ± 0.053 and a protein stability index (Saccharomyces cerevisiae [2]) of 0.495 ± 0.04.

Work on CRQDWMCFVYLS yielded a protein stability index (Saccharomyces cerevisiae [1]; [3]) of 0.0642 ± 0.013, a protein stability index (Saccharomyces cerevisiae [1]; [4]) of 0.0406 ± 0.0042 and a protein stability index (Saccharomyces cerevisiae [1]; [5]) of 0.145 ± 0.021. It also gave a protein stability index (Saccharomyces cerevisiae [1]; [6]) of 0.187 ± 0.031, a protein stability index (Saccharomyces cerevisiae [1]; [7]) of 0.166 ± 0.0047 and a protein stability index (Saccharomyces cerevisiae [1]; [8]) of 0.0558 ± 0.007. The protein stability index (Saccharomyces cerevisiae [1]; [9]) was 0.0647 ± 0.023 and the protein stability index (Saccharomyces cerevisiae [2]) was 0.108 ± 0.016.

CVFAYSPVALRC gave a protein stability index (Saccharomyces cerevisiae [1]; [3]) of 0.543 ± 0.025, a protein stability index (Saccharomyces cerevisiae [1]; [4]) of 0.534 ± 0.014 and a protein stability index (Saccharomyces cerevisiae [1]; [5]) of 0.409 ± 0.024. The protein stability index (Saccharomyces cerevisiae [1]; [6]) was 0.556 ± 0.0084, the protein stability index (Saccharomyces cerevisiae [1]; [7]) was 0.412 ± 0.016 and the protein stability index (Saccharomyces cerevisiae [1]; [8]) was 0.403 ± 0.018. It also gave a protein stability index (Saccharomyces cerevisiae [1]; [9]) of 0.532 ± 0.018 and a protein stability index (Saccharomyces cerevisiae [2]) of 0.488 ± 0.01.

CVFGFACRVLVV gave a protein stability index (Saccharomyces cerevisiae [1]; [3]) of 0.288 ± 0.012, a protein stability index (Saccharomyces cerevisiae [1]; [4]) of 0.32639 ± 4.3e-05 and a protein stability index (Saccharomyces cerevisiae [1]; [5]) of 0.281 ± 0.031. The protein stability index (Saccharomyces cerevisiae [1]; [6]) was 0.407 ± 0.0012, the protein stability index (Saccharomyces cerevisiae [1]; [7]) was 0.241 ± 0.011 and the protein stability index (Saccharomyces cerevisiae [1]; [8]) was 0.278 ± 0.02. It also gave a protein stability index (Saccharomyces cerevisiae [1]; [9]) of 0.364 ± 0.01 and a protein stability index (Saccharomyces cerevisiae [2]) of 0.338 ± 0.017.

For CYKYTYVKNNMI, the protein stability index (Saccharomyces cerevisiae [1]; [3]) was 0.689 ± 0.042, the protein stability index (Saccharomyces cerevisiae [1]; [4]) was 0.7646 ± 0.0044 and the protein stability index (Saccharomyces cerevisiae [1]; [5]) was 0.642 ± 0.038. It also gave a protein stability index (Saccharomyces cerevisiae [1]; [6]) of 0.753 ± 0.014, a protein stability index (Saccharomyces cerevisiae [1]; [7]) of 0.197 ± 0.013 and a protein stability index (Saccharomyces cerevisiae [1]; [8]) of 0.231 ± 0.044. The protein stability index (Saccharomyces cerevisiae [1]; [9]) was 0.555 ± 0.014 and the protein stability index (Saccharomyces cerevisiae [2]) was 0.249 ± 0.051.

CYRRCQAFLVLV gave a protein stability index (Saccharomyces cerevisiae [1]; [3]) of 0.313 ± 0.024, a protein stability index (Saccharomyces cerevisiae [1]; [4]) of 0.397 ± 0.015 and a protein stability index (Saccharomyces cerevisiae [1]; [5]) of 0.334 ± 0.031. The protein stability index (Saccharomyces cerevisiae [1]; [6]) was 0.449 ± 0.015, the protein stability index (Saccharomyces cerevisiae [1]; [7]) was 0.134 ± 0.0022 and the protein stability index (Saccharomyces cerevisiae [1]; [8]) was 0.127 ± 0.026. For the same sequence, the protein stability index (Saccharomyces cerevisiae [1]; [9]) was 0.162 ± 0.011 and the protein stability index (Saccharomyces cerevisiae [2]) was 0.181 ± 0.0026.

With DFVFFLVSVRFR the protein stability index (Saccharomyces cerevisiae [1]; [3]) was 0.103 ± 0.039, the protein stability index (Saccharomyces cerevisiae [1]; [4]) was 0.216 ± 0.059 and the protein stability index (Saccharomyces cerevisiae [1]; [5]) was 0.177 ± 0.037. It also gave a protein stability index (Saccharomyces cerevisiae [1]; [6]) of 0.32 ± 0.017, a protein stability index (Saccharomyces cerevisiae [1]; [7]) of 0.15 ± 0.013 and a protein stability index (Saccharomyces cerevisiae [1]; [8]) of 0.178 ± 0.03. It also gave a protein stability index (Saccharomyces cerevisiae [1]; [9]) of 0.284 ± 0.0058 and a protein stability index (Saccharomyces cerevisiae [2]) of 0.284 ± 0.081.

For DGSFCLLYMTIA, the protein stability index (Saccharomyces cerevisiae [1]; [3]) was 0.504 ± 0.066, the protein stability index (Saccharomyces cerevisiae [1]; [4]) was 0.5745 ± 0.002 and the protein stability index (Saccharomyces cerevisiae [1]; [5]) was 0.429 ± 0.02. It also gave a protein stability index (Saccharomyces cerevisiae [1]; [6]) of 0.615 ± 0.046, a protein stability index (Saccharomyces cerevisiae [1]; [7]) of 0.293 ± 0.0055 and a protein stability index (Saccharomyces cerevisiae [1]; [8]) of 0.332 ± 0.016. The protein stability index (Saccharomyces cerevisiae [1]; [9]) was 0.4919 ± 0.0048 and the protein stability index (Saccharomyces cerevisiae [2]) was 0.454 ± 0.01.
